In publication PMC11944577:

Molecular target: T1, MgrA (Staphylococcus aureus XN108) (UniProt P0C1S0)
T1 sequence: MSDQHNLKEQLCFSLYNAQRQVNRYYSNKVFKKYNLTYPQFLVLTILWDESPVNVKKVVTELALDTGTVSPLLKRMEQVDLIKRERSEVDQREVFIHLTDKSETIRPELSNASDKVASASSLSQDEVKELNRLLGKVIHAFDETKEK
Experiment: competition

Question: How did the binding turn out when “TTTACGTGCAGCACGTTCACGTACCTCAAAGTTACCGAAACCAATTAATTGTACTTTTTCACCTTTAGCAAGTGAGTTTTGGATTGATTCGAATACAGCATCTACTGCTGAACCAGCTTCTTTTT (double strand) [hu fragment (competitor)]” was run?
Answer: no binding
